# Data from publication PMC6711944.
# Molecular target: NS1B-NTR (1-103), N-terminal region of the influenza B virus NS1 protein (influenza B virus) (UniProt P03502)
# Assay: ITC; about 0.5 mM ISG15 injected into 250 ul of 0.05 mM NS1B-NTR in the cell, 20 aliquots of 2 ul; 25 °C; 10 mM HEPES-sodium, 500 mM NaCl, pH 7.2; MicroCal iTC200; 'one set of sites' fitting model
substance,measurement,value
cISG15-K82A-N83A (natural protein),Kd,12 µM
